Test results reported in article PMC10397247.

Experiments:
[1] = target: T1, 4H797-bH; assay: two-hybrid library CCNG1;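 further: natural log of median RNA to DNA barcode read ratio; higher means stronger binding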
T1 chain: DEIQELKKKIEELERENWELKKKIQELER

[2] = target: T2, 4H607-bH; assay: two-hybrid library CCNG1;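 further: natural log of median RNA to DNA barcode read ratio; higher means stronger binding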
T2 chain: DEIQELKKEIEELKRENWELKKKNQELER

[3] = target: T3, 4H462-bH; assay: two-hybrid library CCNG1;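 further: natural log of median RNA to DNA barcode read ratio; higher means stronger binding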
T3 chain: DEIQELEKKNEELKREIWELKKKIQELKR

[4] = target: T4, 4H72-bH; assay: two-hybrid library CCNG1;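 further: natural log of median RNA to DNA barcode read ratio; higher means stronger binding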
T4 chain: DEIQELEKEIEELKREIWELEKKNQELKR

[5] = target: T5, 4H883-bH; assay: two-hybrid library CCNG1
T5 chain: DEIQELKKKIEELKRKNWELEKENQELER

[6] = target: T6, 4H906-bN; assay: two-hybrid library CCNG1
T6 chain: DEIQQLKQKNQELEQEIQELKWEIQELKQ

[7] = target: T7, 4H687-bH; assay: two-hybrid library CCNG1
T7 chain: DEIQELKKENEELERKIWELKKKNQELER

[8] = target: T8, 4H568-bH; assay: two-hybrid library CCNG1
T8 chain: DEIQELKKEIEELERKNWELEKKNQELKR

[9] = target: T9, 4H918-bH; assay: two-hybrid library CCNG1
T9 chain: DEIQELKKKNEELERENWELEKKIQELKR

[10] = target: T10, 4H953-bH; assay: two-hybrid library CCNG1
T10 chain: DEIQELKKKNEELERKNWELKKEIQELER

[11] = target: T11, 4H967-bH; assay: two-hybrid library CCNG1
T11 chain: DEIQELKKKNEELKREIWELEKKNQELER

[12] = target: T12, O8-bN; assay: two-hybrid library CCNG1
T12 chain: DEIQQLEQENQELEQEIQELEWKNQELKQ

[13] = target: T13, O9-bN; assay: two-hybrid library CCNG1
T13 chain: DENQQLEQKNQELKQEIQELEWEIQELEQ

[14] = target: T14, 4H3865-AA; assay: two-hybrid library CCmax; conditions: mean of both orientations
T14 chain: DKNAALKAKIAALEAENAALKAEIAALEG

[15] = target: T15, 4H2907-AA; assay: two-hybrid library CCmax; conditions: mean of both orientations
T15 chain: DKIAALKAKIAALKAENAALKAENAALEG

[16] = target: T16, 4H982-AA; assay: two-hybrid library CCmax; conditions: mean of both orientations
T16 chain: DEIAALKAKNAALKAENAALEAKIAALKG

[17] = target: T17, 4H3631-AA; assay: two-hybrid library CCmax; conditions: mean of both orientations
T17 chain: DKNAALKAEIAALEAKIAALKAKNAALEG

[18] = target: T18, 4H697-AA; assay: two-hybrid library CCmax; conditions: mean of both orientations
T18 chain: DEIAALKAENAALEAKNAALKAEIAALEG

[19] = target: T19, 4H2648-AA; assay: two-hybrid library CCmax
T19 chain: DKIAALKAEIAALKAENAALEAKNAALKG

[20] = target: T20, 4H3606-AA; assay: two-hybrid library CCmax; conditions: mean of both orientations
T20 chain: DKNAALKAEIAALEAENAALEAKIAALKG

[21] = target: T21, 4H340-AA; assay: two-hybrid library CCmax; conditions: mean of both orientations
T21 chain: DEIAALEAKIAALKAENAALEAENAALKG

[22] = target: T22, 4H3056-AA; assay: two-hybrid library CCmax; conditions: mean of both orientations
T22 chain: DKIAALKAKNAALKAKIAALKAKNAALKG

[23] = target: T23, 4H3588-AA; assay: two-hybrid library CCmax; conditions: mean of both orientations
T23 chain: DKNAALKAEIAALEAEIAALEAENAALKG

[24] = target: T24, 4H384-AA; assay: two-hybrid library CCmax; conditions: mean of both orientations
T24 chain: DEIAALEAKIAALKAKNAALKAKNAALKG

[25] = target: T25, 4H3133-AA; assay: two-hybrid library CCmax; conditions: mean of both orientations
T25 chain: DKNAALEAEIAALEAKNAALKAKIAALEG

[26] = target: T26, 4H3697-AA; assay: two-hybrid library CCmax; conditions: mean of both orientations
T26 chain: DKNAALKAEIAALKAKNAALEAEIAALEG

[27] = target: T27, 4H3413-AA; assay: two-hybrid library CCmax; conditions: mean of both orientations
T27 chain: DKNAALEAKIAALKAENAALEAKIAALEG

[28] = target: T28, 4H32-AA; assay: two-hybrid library CCmax; conditions: mean of both orientations
T28 chain: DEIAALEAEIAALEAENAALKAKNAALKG

[29] = target: T29, 4H3378-AA; assay: two-hybrid library CCmax; conditions: mean of both orientations
T29 chain: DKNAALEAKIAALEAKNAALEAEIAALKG

[30] = target: T30, 4H3718-AA; assay: two-hybrid library CCmax; conditions: mean of both orientations
T30 chain: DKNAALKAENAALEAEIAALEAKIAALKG

[31] = target: T31, 4H3162-AA; assay: two-hybrid library CCmax; conditions: mean of both orientations
T31 chain: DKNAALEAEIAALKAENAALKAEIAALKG

Binder: DEIQELEKKNEELKREIWELKKKIQELKR [4H462-bH]
- interaction score [1]: -0.33
- interaction score [2]: -0.483
- interaction score [3]: 0.452
- interaction score [4]: 0.335
- interaction score [5]: -0.231
- interaction score [6]: -2.48
- interaction score [7]: 1.31
- interaction score [8]: 0.229
- interaction score [9]: 0.264
- interaction score [10]: -0.0754
- interaction score [11]: -0.847

Binder: DEIQQLEQENQELEQEIQELEWKNQELKQ [O8-bN]
- interaction score [12]: 0.371
- interaction score [13]: -0.872

Binder: DKIAALKAEIAALKAENAALEAKNAALKG [4H2648-AA]
- interaction score [14]: -1.49
- interaction score [15]: 1.45
- interaction score [16]: -0.309
- interaction score [17]: -0.735
- interaction score [18]: -1.14
- interaction score [19]: 0.455
- interaction score [20]: -1.35
- interaction score [21]: 1.21
- interaction score [22]: -1.84
- interaction score [23]: 0.769
- interaction score [24]: 1.28
- interaction score [25]: -0.651
- interaction score [26]: -1.06
- interaction score [27]: -1.8
- interaction score [28]: 1.9
- interaction score [29]: -1.8
- interaction score [30]: -1.35
- interaction score [31]: -1.38
